The text below walks through data of FireProtDB (doi:10.1110/ps.062595707).

B1: Ribose import binding protein RbsB, P02925 (parent)
chain: MNMKKLATLVSAVALSATVSANAMAKDTIALVVSTLNNPFFVSLKDGAQKEADKLGYNLVVLDSQNNPAKELANVQDLTVRGTKILLINPTDSDAVGNAVKMANQANIPVITLDRQATKGEVVSHIASDNVLGGKIAGDYIAKKAGEGAKVIELQGIAGTSAARERGEGFQQAVAAHKFNVLASQPADFDRIKGLNVMQNLLTAHPDVQAVFAQNDEMALGALRALQTAGKSDVMVVGFDGTPDGEKAVNDGKLAATIAQLPDQIGAKGVETADKVLKGEKVQAKYPVDLKLVVKQ

Values joined by “and” are separate entries in the source; they are usually repeats but may differ in a detail not shown here. Identical values can stand only once.

The variants in the data set derive from B1. The following applies: Escherichia coli (strain K12); pH 7; Thermal; CD; Phosphate 5 mM; structure 2DRI; whole UniProt chain shown.

In the case of MNMKKLATLVSAVALSATVSANAMAKDTIALVVATLNNPFFVSLKDGAQKEADKLGYNLVVLDSQNNPAKELANVQDLTVRGTKILLINPTDSDAVGNAVKMANQANIPVITLDRQATKGEVVSHIAADNVLGGKIAGDYIAKKAGEGAKVIELQGAAGTSAARERGEGFQQAVAAHKFNVLASQPADFDRIKGLNVMQNLLTAHPDVQAVFAQNDEMALGALRALQTAGKSDVMVVGFDGTPDGEKAVNDGKLAATIAQLPDQIGAKGVETADKVLKGEKVQAKYPVDLKLVVKQ [S34A I157A S128A], the Tm (in general, the temperature at which the thermal transition is half complete) was 53.4 °C and 53.7 °C. Consider MNMKKLATLVSAVALSATVSANAMAKDTIALVVSTLNNPFFVSLKDGAQKEADKLGYNLVVLDSQNNPAKELANVQDLTVRGTKILLIAPTDSDAVGNAVKMANQANIPVITLDRQATKGEVVSHIASDNVLGGKIAGDYIAKKAGEGAKVIELQGIAGTSAARERGEGFQQAVAAHKFNVLASQPADFDRIKGLNVMQNLLTAHPDVQAVFAQNDEMALGALRALQTAGKSDVMVVGFDGTPDGEKAVNDGKLAATIAQLPDQIGAKGVETADKVLKGEKVQAKYPVDLKLVVKQ [N89A], for which the Tm worked out at 52.9 °C and the “change of melting temperature, mutant - wild type (higher = more stable)” value (from here on “change of melting temperature, mutant”) is -4.6 °C. Turning to MNMKKLATLVSAVALSATVSANAMAKDTIALVVSTLNNPFFVSLKDGAQKEADKLGYNLVVLDSQNNPAKELANVQDLTVRGTKILLINPTDSDAVGNAVKMANQANIPVITLDRQATKGEVVSHIASDNVLGGKIAGDYIAKKAGEGAKVIELQGAAGTSAARERGEGFQQAVAAHKFNVLASQPADFDRIKGLNVMQNLLTAHPDVQAVFAQNDEMALGALRALQTAGKSDVMVVGFDGTPDGEKAVNDGKLAATIAQLPDQIGAKGVETADKVLKGEKVQAKYPVDLKLVVKQ [I157A], the Tm was 57.3 °C and 61.2 °C; the “change of melting temperature, mutant” value was -0.2 °C and -2.5 °C. For the variant MNMKKLATLVSAVALSATVSANAMAKDTIALVVSTLNNPFFVSLKDGAQKEADKLGYNLVVLDSQNNPAKELANVQDLTVRGTKILLINPTDSDAVGNAVKMANQANIPVITLDRQATKGEVVSHIASDNVLGGKIAGDYIAKKAGEGAKVIELQGIAGTSAARERGEGFQQAVAAHKFNVLASQPADADRIKGLNVMQNLLTAHPDVQAVFAQNDEMALGALRALQTAGKSDVMVVGFDGTPDGEKAVNDGKLAATIAQLPDQIGAKGVETADKVLKGEKVQAKYPVDLKLVVKQ [F189A], the Tm is 51.7 °C and 53.3 °C; the “change of melting temperature, mutant” value is -5.8 °C and -10.4 °C.

For the variant MNMKKLATLVSAVALSATVSANAMAKDTIALVVSTLNNPFFVSLKDGAQKEADKLGYNLVVLDSQNNPAKELANVQDLTVRGTKILLINPTDSDAVGNAVKMANQANIPVITLDRQATKGEVVSHIAADNVLGGKIAGDYIAKKAGEGAKVIELQGIAGTSAARERGEGFQQAVAAHKFNVLASQPADFDRIKGLNVMQNLLTAHPDVQAVFAQNDEMALGALRALQTAGKSDVMVVGFDGTPDGEKAVNDGKLAATIAQLPDQIGAKGVETADKVLKGEKVQAKYPVDLKLVVKQ [S128A], the Tm was 57.8 °C and 60.7 °C; the “change of melting temperature, mutant” value is 0.3 °C and -3 °C. Turning to MNMKKLATLVSAVALSATVSANAMAKDTIALVVATLNNPFFVSLKDGAQKEADKLGYNLVVLDSQNNPAKELANVQDLTVRGTKILLINPTDSDAVGNAVKMANQANIPVITLDRQATKGEVVSHIASDNVLGGKIAGDYIAKKAGEGAKVIELQGIAGTSAARERGEGFQQAVAAHKFNVLASQPADFDRIKGLNVMQNLLTAHPDVQAVFAQNDEMALGALRALQTAGKSDVMVVGFDGTPDGEKAVNDGKLAATIAQLPDQIGAKGVETADKVLKGEKVQAKYPVDLKLVVKQ [S34A], the “change of melting temperature, mutant” value is -1.5 °C and 0.1 °C. In the case of MNMKKLATLVSAVALSATVSANAMAKDTIALVVSTLNNPFFVSLKDGAQKEADKLGYNLVVLDSQNNPAKELANVQDLTVRGTKILLINPTDSDAVGNAVKMANQANIPVITLDRQATKGEVVSHIASDNVLGGKIAGDYIAKKAGEGAKVIELQGIAGTSAARERGEGFQQAVAAHKFNVLASQPADFDRIKGLNVMQNLLTAHPDVQAVFAQNDEMALGALRALQTAGKSDVMVVGFDGTPDGEKAVNDGKLAATIAALPDQIGAKGVETADKVLKGEKVQAKYPVDLKLVVKQ [Q260A], the Tm was 58.2 °C and 58.9 °C. For MNMKKLATLVSAVALSATVSANAMAKDTIALVVSTLNNPAFVSLKDGAQKEADKLGYNLVVLDSQNNPAKELANVQDLTVRGTKILLINPTDSDAVGNAVKMANQANIPVITLDRQATKGEVVSHIASDNVLGGKIAGDYIAKKAGEGAKVIELQGIAGTSAARERGEGFQQAVAAHKFNVLASQPADFDRIKGLNVMQNLLTAHPDVQAVFAQNDEMALGALRALQTAGKSDVMVVGFDGTPDGEKAVNDGKLAATIAQLPDQIGAKGVETADKVLKGEKVQAKYPVDLKLVVKQ [F40A], the Tm was 52.5 °C and 54.2 °C; the “change of melting temperature, mutant” value is -5 °C and -9.5 °C. In the case of MNMKKLATLVSAVALSATVSANAMAKDTIALVVSTLNNPFAVSLKDGAQKEADKLGYNLVVLDSQNNPAKELANVQDLTVRGTKILLINPTDSDAVGNAVKMANQANIPVITLDRQATKGEVVSHIASDNVLGGKIAGDYIAKKAGEGAKVIELQGIAGTSAARERGEGFQQAVAAHKFNVLASQPADFDRIKGLNVMQNLLTAHPDVQAVFAQNDEMALGALRALQTAGKSDVMVVGFDGTPDGEKAVNDGKLAATIAQLPDQIGAKGVETADKVLKGEKVQAKYPVDLKLVVKQ [F41A], the Tm is 58.9 °C and 57.4 °C. Turning to MNMKKLATLVSAVALSATVSANAMAKDTIALVVATLNAPFFVSLKDGAQKEADKLGYNLVVLDSQNNPAKELANVQDLTVRGTKILLINPTDSDAVGNAVKMANQANIPVITLDRQATKGEVVSHIAADNVLGGKIAGDYIAKKAGEGAKVIELQGAAGTSAARERGEGFQQAVAAHKFNVLASQPADFDRIKGLNVMQNLLTAHPDVQAVFAQNDEMALGALRALQTAGKSDVMVVGFDGTPDGEKAVNDGKLAATIAALPDQIGAKGVETADKVLKGEKVQAKYPVDLKLVVKQ [S34A I157A S128A N38A Q260A], the Tm was 59 °C and the “change of melting temperature, mutant” value is -4.7 °C. With MNMKKLATLVSAVALSATVSANAMAKDTIALVVSTLNAPFFVSLKDGAQKEADKLGYNLVVLDSQNNPAKELANVQDLTVRGTKILLINPTDSDAVGNAVKMANQANIPVITLDRQATKGEVVSHIASDNVLGGKIAGDYIAKKAGEGAKVIELQGIAGTSAARERGEGFQQAVAAHKFNVLASQPADFDRIKGLNVMQNLLTAHPDVQAVFAQNDEMALGALRALQTAGKSDVMVVGFDGTPDGEKAVNDGKLAATIAQLPDQIGAKGVETADKVLKGEKVQAKYPVDLKLVVKQ [N38A], the Tm was 58.2 °C and 60.1 °C; the “change of melting temperature, mutant” value was 0.7 °C and -3.6 °C. Turning to MNMKKLATLVSAVALSATVSANAMAKDTIALVVATLNAPFFVSLKDGAQKEADKLGYNLVVLDSQNNPAKELANVQDLTVRGTKILLINPTDSDAVGNAVKMANQANIPVITLDRQATKGEVVSHIAADNVLGGKIAGDYIAKKAGEGAKVIELQGAAGTSAARERGEGFQQAVAAHKFNVLASQPADFDRIKGLNVMQNLLTAHPDVQAVFAQNDEMALGALRALQTAGKSDVMVVGFDGTPDGEKAVNDGKLAATIAQLPDQIGAKGVETADKVLKGEKVQAKYPVDLKLVVKQ [S34A I157A S128A N38A], the melting temperature (Tm) was 54.7 °C and the “change of melting temperature, mutant” value was -9 °C. For MNMKKLATLVSAVALSATVSANAMAKDTIALVVATLNNPFFVSLKDGAQKEADKLGYNLVVLDSQNNPAKELANVQDLTVRGTKILLINPTDSDAVGNAVKMANQANIPVITLDRQATKGEVVSHIASDNVLGGKIAGDYIAKKAGEGAKVIELQGAAGTSAARERGEGFQQAVAAHKFNVLASQPADFDRIKGLNVMQNLLTAHPDVQAVFAQNDEMALGALRALQTAGKSDVMVVGFDGTPDGEKAVNDGKLAATIAQLPDQIGAKGVETADKVLKGEKVQAKYPVDLKLVVKQ [S34A I157A], the “change of melting temperature, mutant” value is -0.7 °C and 2.4 °C. Turning to MNMKKLATLVSAVALSATVSANAMAKDTIALVVSTLNNPFFVSLKDGAQKEADKLGYNLVVLDSQNNPAKELANVQDLTVRGTKILLINPTDSDAVGNAVKMANQANIPVITLDRQATKGEVVSHIASDNVLGGKIAGDYIAKKAGEGAKVIELQGIAGTSAARERGEGFQQAVAAHKFNVLASQPADFDRIKGLNVMQNLLTAHPDVQAVFAQNDEMALGALRALQTAGKSDVMVVGADGTPDGEKAVNDGKLAATIAQLPDQIGAKGVETADKVLKGEKVQAKYPVDLKLVVKQ [F239A], the Tm is 48 °C and 46 °C. As to MNMKKLATLVSAVALSATVSANAMAKDTIALVVSTLNNPFFVSLKDGAQKEADKLGYNLVVLDSQNNPAKELANVQDLTVRGTKILLINPTDSDAVGNAVKMANQANIPVITLARQATKGEVVSHIASDNVLGGKIAGDYIAKKAGEGAKVIELQGIAGTSAARERGEGFQQAVAAHKFNVLASQPADFDRIKGLNVMQNLLTAHPDVQAVFAQNDEMALGALRALQTAGKSDVMVVGFDGTPDGEKAVNDGKLAATIAQLPDQIGAKGVETADKVLKGEKVQAKYPVDLKLVVKQ [D114A], the Tm is 58.2 °C and 57.2 °C. Turning to MNMKKLATLVSAVALSATVSANAMAKDTIALVVSTLNNPFFVSLKDGAQKEADKLGYNLVVLDSQNNPAKELANVQDLTVRGTKILLINPTDSDAVGNAVKMANQANIPVITLDRQATKGEVVSHIASDNVLGGKIAGDYIAKKAGEGAKVIELQGIAGTSAARERGEGFQQAVAAHKFNVLASQPADFDRIKGLNVMQNLLTAHPDVQAVFAQADEMALGALRALQTAGKSDVMVVGFDGTPDGEKAVNDGKLAATIAQLPDQIGAKGVETADKVLKGEKVQAKYPVDLKLVVKQ [N215A], the Tm is 49.4 °C and 51.5 °C; the “change of melting temperature, mutant” value was -8.1 °C and -12.2 °C. On to MNMKKLATLVSAVALSATVSANAMAKDTIALVVSTLNNPFFVSLKDGAQKEADKLGYNLVVLDSQNNPAKELANVQDLTVRGTKILLINPTDSDAVGNAVKMANQANIPVITLDRQATKGEVVSHIASDNVLGGKIAGDYIAKKAGEGAKVIELQGIAGTSAARERGEGFQQAVAAHKFNVLASQPADFDRIKGLNVMQNLLTAHPDVQAVFAQNDEMALGALRALQTAGKSDVMVVGFAGTPDGEKAVNDGKLAATIAQLPDQIGAKGVETADKVLKGEKVQAKYPVDLKLVVKQ [D240A], for which the Tm was 51.2 °C and 51.3 °C.
